According to FireProtDB (doi:10.1074/jbc.271.12.6832):
“And” between values parts separate entries of the source, which are not always exact repeats. Identical values can stand only once.

Details: Streptococcus pneumoniae serotype 4 (strain ATCC BAA-334 / TIGR4); pH 6.9; Thermal; DSC; phosphate 20 mM; transition: 4; reversible: no; whole UniProt chain shown

B1: Autolysin wild type, P06653 (protein)
chain: MEINVSKLRTDLPQVGVQPYRQVHAHSTGNPHSTVQNEADYHWRKDPELGFFSHIVGNGCIMQVGPVDNGAWDVGGGWNAETYAAVELIESHSTKEEFMTDYRLYIELLRNLADEAGLPKTLDTGSLAGIKTHEYCTNNQPNNHSDHVDPYPYLAKWGISREQFKHDIENGLTIETGWQKNDTGYWYVHSDGSYPKDKFEKINGTWYYFDSSGYMLADRWRKHTDGNWYWFDNSGEMATGWKKIADKWYYFNEEGAMKTGWVKYKDTWYYLDAKEGAMVSNAFIQSADGTGWYYLKPDGTLADKPEFTVEPDGLITVK
With B1 as the protein, how does the “unfolding enthalpy (van 't Hoff)” value read?
Its value is 50 kcal/mol and 71 kcal/mol and 95 kcal/mol.
